The values below come from the nanobody polyreactivity screen of Harvey et al. (2022).

This series is described as follows: yeast display, Sf9 membrane polyspecificity reagent, FACS + sequencing; frameworks hold sequencing errors. In short, it runs like this: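 Galactose-induced (36–48 hours) yeast carrying a synthetic nanobody display library were exposed to 10% biotinylated, detergent-solubilized Sf9 membrane reagent at 4 °C for 1 hour. FACS followed streptavidin microbead enrichment, using low and high (top ~1%) gates for expression (anti-HA) and reagent binding (streptavidin). Colony PCR, MiSeq 2 × 250 sequencing and CDR-length filtering followed. Labels for polyreactivity reflect the gate of origin.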
“QVQLVESGGGLVQAGGSLRLSCAASGRILDKYAMGWYRQAPGKERELVARIRFSGGDTYADSVKGRFTISRDNAKNTVYLQMNSLKPEDTAVYYCNKDRRNRWYAFDYWGQGTQVTVSS”: the “polyreactivity (PSR sort gate)” value is listed as “low polyreactivity”.

Regarding “QVQLVESGGGLVQAGGSLRLSCAASGRNYRYAMGWYRQAPGKEWALVAAISSGGRTNYADSVKGRFTISRDNAKNTVYLQMNSLKPEDTAVYYCAAEAPFYVKGRRYRGYDYWGQGTQVTVSS”, the “polyreactivity (PSR sort gate)” value is recorded as “high polyreactivity”.

Turning to “QVQLVESGGGLVQAGGSLRLSCAASGLIFAYAMGWYRQAPGTERELVAAISGRDGSTYYADSVKGRFTISRDNAKNTVYLQMNSLKPEDTAVYYCAKRISYLPVEMDYWGQGTQVTVSS”, the “polyreactivity (PSR sort gate)” value is listed as “low polyreactivity”.

For “QVQLVESGGGLVQAGGSLRLSCAASGRTFVGYAIGWSRPATGKERELVAAISRTGGSTYYADSVKGRFTISRDNAKNTVYLQMNSLKPEDTAVYYCNAVTLSSTYGGHDYWGQGTQVTVSS”, the “polyreactivity (PSR sort gate)” value was “high polyreactivity”.

As for “QVQLVESGGGLVQAGGSLRLSCAASGRIFFRYVMGWYRQAPGKERELVAAIDRGGTTNYADSVKGRFTISRDNAKNTVYLQMNSLKPEDTAVYYCAVRYFPYRDYYWGQGTQVTVSS”, the “polyreactivity (PSR sort gate)” value is “high polyreactivity”.

On to “QVQLVESGGGLVQAGGILRFSCAASGSTFGLNAMGWYRQAPGQERELVAAISWSGGTTYYADSVKGRFTISRDNAKNTVYLQMNSLTPEDTAVYYCAADVYSSWGYYEVYYWGQGTQVTVSS”, for which the “polyreactivity (PSR sort gate)” value is reported as “high polyreactivity”.

“QVQLVESGGGLVQAGGSLRLSCAASGSTFKYYAMGWYRQAPGKERELVAAISGTGGNTYYADSVKGRFTISRDNAKNTVYLQMNSLKPEDTAVYYCAAGFRRGWAYTTYDYWGQGTQVTVSS”: the “polyreactivity (PSR sort gate)” value is “low polyreactivity”.

Regarding “QVQLVESGGGLVQAGGSLRLSCAASGSTFGSYAMGWYRQAPGKERELVAAITASGGSTYYADSVKGRFTISRDNAKNTVYLQMNSLKPEDTAVYYCAADTTYIPLSIEYDYWGQGTQVTVSS”, the “polyreactivity (PSR sort gate)” value is reported as “low polyreactivity”.

Consider “QVQLVESGGGLVQAGGSLRLSCAASGRTFHDYAMGWYRQAPGKERELVAAISISGVSTYYADSVKGRFTSSRDNAKNTVYLQMNSLKPVDTAVYYCAAAQDAAVYWRPGGYDYWGQGTQVTVSS”, for which the “polyreactivity (PSR sort gate)” value is “low polyreactivity”.

Regarding “QVQLVESGGGLVQAGGSLRLSCDASGITFGNYAMGWYRPAPGKDRELVAAITGSGGRTYYADSVKGRFTISRDNAKNTVYLQMNSLKPEDTAVYYCNRRQYGRKKQYDYWGQGTQVTVSS”, the “polyreactivity (PSR sort gate)” value was “high polyreactivity”.

Turning to “QVQLVESGGGLVQAGGSLRLSCAASGSTFGLYAMGWYRQAPGKERELVAAISGGSGRTYYADSVKGRFTISRDNAKNTVYLQMNSLKPEDTAVYYCAAVPVYRHEYDYWGQGTQVTVSS”, the “polyreactivity (PSR sort gate)” value was “low polyreactivity”.

For “QVQLVESGGGLVQAGGSLRLSCAASGSTLNRYAMGWYRQAPGKERELVAAINGSGGSTYYADSVKGRFTISRENAKNTVYLLINSLKQEDSAVYYCAAYGYSFAYGAYGYWGQGTQVTVSS”, the “polyreactivity (PSR sort gate)” value is reported as “high polyreactivity”.

“QVQLVESSGGLVQAGGSLRLSCAASGLTFDGYAMGWYRQAPGKEREIVAAITQSGGSTYYADSVKGRFTISRDNAKNTVYLQMNSLKPVDTAVYYCAADGVLIHISYFRVVDGGEDHWGQGTQVNVSS”: the “polyreactivity (PSR sort gate)” value is on record as “low polyreactivity”.

On to “QVQLVESGGGLVQAGGSLRLSCAAYGITFAPYAMGWYRQAPGKERELVAGINTGGSTYYADSVKGRFTISRDNAKNTVYLQMNSLKPEDTAVYYCATESYPADHDIPGSDYWGQGTQVTVSS”, for which the “polyreactivity (PSR sort gate)” value is reported as “low polyreactivity”.

For “QVQLVESGGGLVQAGGSLRLSCAASGRTFYVYDMGWYRQAPGKERELVAAISNICTRTYYADSVKGRFTISRDNAKNTVYLQMNSLKPEVTAVYYCATGRSRVYKGRGDYWGQGTHVTVSS”, the “polyreactivity (PSR sort gate)” value is on record as “high polyreactivity”.

For the sequence “QVQLQESGGGLEQAGGCLRLSCAASGSIFTYAVMGWYRQAHGKEHELVATIDTGSSTYYADSVKGRISISRDNAKNTLYLQMNSLKPEDTEVYYCAVNTYCRVRYRYWVQGTQVTVSS”, the “polyreactivity (PSR sort gate)” value is recorded as “high polyreactivity”.

With “QVQLVESGGGLVQAGGSLRLSCAASGRTFTPYAMGWYRQAPGKERELVATISSGTSTNYADSVKGRFTISRDNAKNTVYLQMNSLKPEDTAVYYCAADGYTYKFDYWGQGTQVTVSS”, the “polyreactivity (PSR sort gate)” value is “low polyreactivity”.

“QVQLVESGGGLVQAGGSLRLSCAASGRIFGQYAMGWYRQAPGKDRELVAAISWRGGTTYYADSVKGRFTISRDNAKNTVYLQMNSLKPEDTAVYYCNADVWVYPYDYWGQGTQVTVSS”: the “polyreactivity (PSR sort gate)” value is “low polyreactivity”.

Turning to “QVQLVESGGGLVQAGGSLRLSCAASGSIFKTNAMGWYRQAPGKERELVAAIYRSDGTDYADSVKGRFTISRDNAKNTVYLQMNSLKPEDTAVYYCNADKWSVVGYVLGFYRDDYWGQGSQVTVSS”, the “polyreactivity (PSR sort gate)” value is “low polyreactivity”.

Consider “QVQLVESGGGLVQAGGSLRLSCAASGFTFSLYAMGWYRQAPGKERELVAAITWSGTRTYYADSVKGRFTISRDNAKNTVYLQMNSLKPEDTAVYYCATQGYGYRGWRNLYDYDYWGQGTQVTVSS”, for which the “polyreactivity (PSR sort gate)” value is recorded as “high polyreactivity”.

For “QVQLVESVGGLVQAGGSLRLTCAASGLILRRYAMGWYRQAPGKEELVAAITSDASTYYADSVKGRFTISRYNAKNTVYLQMNSLKPEDPAVYYCAADTYDNDYYYWGQGTQVTVSS”, the “polyreactivity (PSR sort gate)” value is on record as “high polyreactivity”.

Regarding “QVQLVESGGGLVQAGGSLRLSCAASGRTFYVYTMGWYIQAPGKEREMVAGIAYSGGSTYYADSVKGRFTISRDNAKNTVYLQMNSLKPEDTAVYYCNADLYFPYFDGKTRHGGYWGQGTQVTVSS”, the “polyreactivity (PSR sort gate)” value is “low polyreactivity”.

“QVQLVESGGGLVQAGGSLRLSCAASGSSGYFYALGWSRPAPGKERELVADMDWSGDSTYYADSVKGRFTISRDNAKTTVYLQMNSLKPEDTAVYYCNAAYDYYSPSYTYDYWGQGTQVTVSS”: the “polyreactivity (PSR sort gate)” value is listed as “low polyreactivity”.

As to “QVQLVESGGGLVQAGGSLRLSCAASGFIYHNAMGWYRQAPGKERELVARITWSGGSTSYADSVKGRFTISRDNAKNTVYLQMTSLKPEETAVYYCAARGVVYRYGASRGYWGQGTQVTVSS”, the “polyreactivity (PSR sort gate)” value is “high polyreactivity”.

As to “QVHLGQSGGGLVQAGGSLRLSCAASAITFRGNAMGWYRQAPGKERDLVAVITKGGVSTYYADSVKGRFTISRDNAKNTVYLQMNSLKPEVTAVYYCAKYWSWRSVKDYYWGLGTQVTVSS”, the “polyreactivity (PSR sort gate)” value was “high polyreactivity”.

As for “QVQLVESGGGLVQAGGSLRLSCAASGSTFSKYAMGWYRQAPGKERELVAAISSRGGSTYYADSVKGRFTISRDNAKNTVYLQMNSLKPEDTAVYYCATYYVYKLYYWGQGTQVTVSS”, the “polyreactivity (PSR sort gate)” value was “high polyreactivity”.

Regarding “QVQLVESGGGLVQAGGSLRLSCAASGFTFYGYAMGWYRQAPGKERELVAAISSSGGRTYYADSVKGRFTISRDNSKNTVYLQMNSLKPEDTAVYYCAADYTSRDYYYWGQGTQVTVSS”, the “polyreactivity (PSR sort gate)” value was “high polyreactivity”.

Regarding “QVQLVESGGGLVKAGGSLRLSCAASGSIFDFYVMGWYRQAPGKERELVAAISSGGSTYYADSVKGRFTISRDNAKNTVYIKMNSLKPEDTAVYYCAAYPEYVSGAWYDYWGQGTQVTVSS”, the “polyreactivity (PSR sort gate)” value is “low polyreactivity”.

Turning to “QVQLVDSGGGLVQAGGSLRLSCSASGYIFYANTMGWYRQAPGKEREFVATISWIGSTYYADSVKGRFTISRDNAKNTVYLQMNSLKPEDTAVYYCNARYTYRRYGRYDYWGQGTQVTVSS”, the “polyreactivity (PSR sort gate)” value was “high polyreactivity”.

In the case of “QVQLVESGGGLVQAGGSLRLSCAASGRILYVNAMGWSRQAPGKERELVAAISWRGGRTYYADSVKGRFTISRDTAKNTVYLQMNSLKPEDTAVYYCAARARGGYQRDYWGQGTQVTVSS”, the “polyreactivity (PSR sort gate)” value was “high polyreactivity”.

In the case of “QVQHVESGGGLVQAGGSLRLSCSASGFTFYSYAMGWYRQAPGTERELLAVISKRGGSTRYADSVKGRFTISRDNAKNSVYFQMNSLKPEDTAVYYCNADQHSMTYNEFDYWGQGTQVTVSS”, the “polyreactivity (PSR sort gate)” value is recorded as “low polyreactivity”.

With “QVQLVESGGGLVQAGGSLRLRCAASGRTFGEYTMGWYRQAPGKERELVAAISSAGRTNYADSVKGRFTISRDNAKNTVYLQMNSLKPEDSGVYYCAADWTDDVRGYDYWGQGTQVTVSS”, the “polyreactivity (PSR sort gate)” value is “low polyreactivity”.

On to “QVQIVESGGCLVQAGGSLRLSCAASGRTFWYYTMGWYRQAPGKEREFVAAISYSAGNTYYADSVKGRFTISRDNAKNTVYLQMNSLKPEDTAVNYCAVQRGYRSNAYDYWGQGTQVTVSS”, for which the “polyreactivity (PSR sort gate)” value is “high polyreactivity”.

“QVQLVESGGGLVQGGGSLRLSCAASGRIFDYYTMGWYRPAPGKERELVAAISSGGSTNYADYVKGRFTISRDNAKNTVYLQMNSLKPEDTAVYYCNVDLTTVGHWYYYRPGYDYWEQGTQVTVSS”: the “polyreactivity (PSR sort gate)” value was “low polyreactivity”.

In the case of “QVQLVESGGGLVQAGGSLRLISAASGSSFSSYAMGWYRQAPGKERDLVAAISWRGGSTYYADSVKGRFTISRDNAKNTVYLQMNSLKTEDTAVYFCAKLVRGVGTEMYYWGQGTQVTVSS”, the “polyreactivity (PSR sort gate)” value is “high polyreactivity”.

“QVQLVESGGGLVQAGGSLRLSCAASGRIFVSNAMGWYRQAPGKERELVAAISSSGGSTYYADSVKGRFTISRDNAKNTVYLQMNSLKPEDTAVYYCNVLGQRYYPSGRNYWGQGTQVTVSS”: the “polyreactivity (PSR sort gate)” value is “high polyreactivity”.

In the case of “QVQLVESGGGLVQAGGSLRLSCAASGIILGSYAMGWYRQAPGTERELVAGITSGGGTYYADSVKGRFTISRDNAKNTVYLQMNSLKPEDTAVYYCAKLYFHYYRYGYWGQGTQVTVSS”, the “polyreactivity (PSR sort gate)” value is listed as “low polyreactivity”.

Regarding “QVQLVESGGGLVQAGGSLRLSCAASGSIFTYYTMGWYRQAPGKERELVAAITVSGGRTFYADSVKGRFTISRDNAKNTVYLQMNSLKPEDTAVYYCAVKQVTLSPQYDYWGQGTQVTVSS”, the “polyreactivity (PSR sort gate)” value is reported as “low polyreactivity”.

For the sequence “QVQLVESGGGLVQAGGSLRLSCAASGFTFAYNAMGWYRQAPGKERELVAAISWSGGTTYYADSVKGRFTISRDNAKNTVYLQMNSLKPEDTAVYYCAKRGIGYATSWRGSDYWGQGTQVTVSS”, the “polyreactivity (PSR sort gate)” value is given as “high polyreactivity”.

With “QVQLVESAGGLVQAGGSLRLSCDASISSINAMGWYRQAPGKEREMVAAIRWSGSSTYYADSVKGRFTISRDNAKNTVYLQMNSLKPEDTAVYYCAARWYARSLTRFNYWGQGTQVTVSS”, the “polyreactivity (PSR sort gate)” value is “high polyreactivity”.

On to “QVQLVESGGGLVQAGGSLRISCAASGSTFSSYAMGWYRQAPGKERELVAAISRSGDRTYYADSVKGRFTISRDNAEKTVYFQMNSLKPEDTAFYYCNTVYINRVTNLYDYWGQGTQVTVSS”, for which the “polyreactivity (PSR sort gate)” value is “high polyreactivity”.
